B1: NAD-dependent protein deacetylase sirtuin-1 (Mus musculus), Q923E4 (parent)
chain: MADEVALALQAAGSPSAAAAMEAASQPADEPLRKRPRRDGPGLGRSPGEPSAAVAPAAAGCEAASAAAPAALWREAAGAAASAEREAPATAVAGDGDNGSGLRREPRAADDFDDDEGEEEDEAAAAAAAAAIGYRDNLLLTDGLLTNGFHSCESDDDDRTSHASSSDWTPRPRIGPYTFVQQHLMIGTDPRTILKDLLPETIPPPELDDMTLWQIVINILSEPPKRKKRKDINTIEDAVKLLQECKKIIVLTGAGVSVSCGIPDFRSRDGIYARLAVDFPDLPDPQAMFDIEYFRKDPRPFFKFAKEIYPGQFQPSLCHKFIALSDKEGKLLRNYTQNIDTLEQVAGIQRILQCHGSFATASCLICKYKVDCEAVRGDIFNQVVPRCPRCPADEPLAIMKPEIVFFGENLPEQFHRAMKYDKDEVDLLIVIGSSLKVRPVALIPSSIPHEVPQILINREPLPHLHFDVELLGDCDVIINELCHRLGGEYAKLCCNPVKLSEITEKPPRPQKELVHLSELPPTPLHISEDSSSPERTVPQDSSVIATLVDQATNNNVNDLEVSESSCVEEKPQEVQTSRNVENINVENPDFKAVGSSTADKNERTSVAETVRKCWPNRLAKEQISKRLEGNQYLFVPPNRYIFHGAEVYSDSEDDVLSSSSCGSNSDSGTCQSPSLEEPLEDESEIEEFYNGLEDDTERPECAGGSGFGADGGDQEVVNEAIATRQELTDVNYPSDKS
partner: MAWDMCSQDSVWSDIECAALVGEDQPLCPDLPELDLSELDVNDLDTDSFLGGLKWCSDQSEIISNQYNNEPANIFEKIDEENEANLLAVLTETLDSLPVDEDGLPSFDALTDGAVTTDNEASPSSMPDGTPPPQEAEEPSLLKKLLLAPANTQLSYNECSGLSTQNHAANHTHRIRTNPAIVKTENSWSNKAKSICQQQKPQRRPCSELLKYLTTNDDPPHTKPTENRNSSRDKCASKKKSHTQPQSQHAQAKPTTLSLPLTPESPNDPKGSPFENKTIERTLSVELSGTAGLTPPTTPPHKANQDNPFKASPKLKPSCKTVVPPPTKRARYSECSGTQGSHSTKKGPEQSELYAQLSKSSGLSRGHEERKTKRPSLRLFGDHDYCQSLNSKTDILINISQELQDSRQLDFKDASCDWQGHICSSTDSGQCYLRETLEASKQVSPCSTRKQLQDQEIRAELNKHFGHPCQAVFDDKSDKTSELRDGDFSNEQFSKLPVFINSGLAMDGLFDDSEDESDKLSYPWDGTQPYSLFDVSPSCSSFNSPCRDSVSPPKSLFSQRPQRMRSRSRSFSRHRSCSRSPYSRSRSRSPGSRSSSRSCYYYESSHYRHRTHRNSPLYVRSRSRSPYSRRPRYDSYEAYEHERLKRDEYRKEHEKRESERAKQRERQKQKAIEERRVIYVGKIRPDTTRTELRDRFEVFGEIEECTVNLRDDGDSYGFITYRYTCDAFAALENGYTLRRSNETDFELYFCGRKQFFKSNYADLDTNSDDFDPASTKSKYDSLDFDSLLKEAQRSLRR

Variants of B1 are the subject of this test. Conditions: with prgc1_mouse Ppargc1a.
Turning to G261A, the “effect of a mutation on the interaction” value is listed as “decreasing interaction”.

The record behind these values is IntAct's records for PubMed 15716268.
